In the supplement of paper PMC9170038:

tested on: K4 kissing-loop RNA reporter; assay: apparent KD of K4 kissing-loop reporter; higher = weaker reporter binding; conditions: Eterna round: R107; input ligand: arginine 13.2 mM
Method: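 RNA-MaP round R107: designed RNA switches with theophylline, tryptophan, arginine or FMN aptamers are transcribed on-chip within common flanks. They are titrated with a labelled K4 kissing-loop RNA reporter in RNA-MaP buffer (100 mM Tris pH 7.5, 80 mM KCl, 4 mM MgCl2), without ligand or with the indicated ligand. Median apparent KD per design.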
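Note: bound reporter read as fluorescence of individual clusters on recovered sequencing chips by microscopy, with normalized cluster intensities fitted with a binding model.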

Sequence	apparent KD of K4 kissing-loop reporter
GUUACGCAUGGAAGGAGCGCUCUCCGGCUUAAUAACACAGUGAUGUUGUGAAUUUGCCGAAAGCAGGUAGGUCGCCAUGUGUAAC [Ex Arginine B K4 10]	359 nM
UCCUGCAAUCGACCACGAAAGUGGAUUGAUACCAGAGUCGAAAGACUCCCUUGGCAGCGAGUGAUGUUCGAAGCAGGUAAAUAAA	455 nM
UAACGGCCCAGUGAUGUUGGGUGGAGGCGGCGAGGACCGGUACGGCCGCCACUCGGCGCACAGGCGGAGUGAUGUUGCGCGUAAA [Same State Tryptophan A GF 13]	164 nM
AAAUAAAGCAGUCAUCCAGUGAUGUUGGAAGGAGCGUGCGAAAGCACAGGUAGGUCGCCAAAACCUAAUAAUGGCUGCUAAAUAA [#SwitchBubble 2 #K4Early]	211 nM
GUAUCGCUAGGAGGAUAUUUCAAAUCGCCAAUAAAUGGUGAUACGGAGUGAUGUUCCGAUUUACGGAAAGAAGGCCUAGUGAUAC [FMN B 6]	269 nM
UGUCAUUGGUCUGAUACCAGCUGAUCGGAAACGAUCUUGCUGGAGUGAUGUUCCAAGUAAAGCCCUUGGCAGCAGACCGAUGACU [TheoBS 9 #SwitchBubble #StaticStem]	53.8 nM
GGUAGCAUGGCGGCCGCCACUUACUUCAAUAGGAGUGAUGUUCCUAUUACUAGUAGUGAAAUAAUAAGGACCGGGCCAUGCUACC	87.9 nM
AAACAUCACUACUUCUUCGUCCUAGAAGACUAGGAUAUCAGGAAACUGAGAAGGAGUCUCUGCAGUGAUGUUGCAGCUAGGACGA [[K]'-[F2]'-[F1]'-[F1]-[F2]-[K1]-[K2]-[F]''_Design2]	219 nM
AAGCAGUCCCUUGUAGUCAUCGAAGAUGAACGAGGACCGGUACGGCCGCCACUCGGAGUGAUGUUCCGAAGGCUGCAAAAUAAAA [MatMod 19 - Jieux - Exclusion - Tryptophan A]	123 nM
AAUUUAUAUUUAUUCUUUAAAUGUUCAGAAGGAGCGUGAAUUAUCACAGGUAGGUCGCUGGGCUAGUGAUGUUGGCUAUAUACUA [whbob_Ex_Arginine_A_2t125]	186 nM
GGACGACAGGCGGCCGCCACUCAAAGCAGCCAGCGAGUGAUGUUCGUGGCGGAGUGAUGUUCCUAGAGGACCGGGUCUGCAGUUC [Same State Tryptophan B GF 18]	390 nM
UUCAUCGUGGUUCGCGGGUGGUAUGAAAAGCGAGGACCGGUACGGCCGCCACUCGGUUCCGCUUGUUGAGUGAUGUUCAAUAUUU	281 nM
AACUGUCAAGGACAACAUUACUGAGGUGAUACCAGCAUCGAAAGAUGCCCUUGGCAGCACUGACUUGCAGUGAUGUUGCAAGUAA [BrourdMod 8 - Jieux - Exclusion - Theophylline A]	162 nM
UUAACCAACAGCGAUACCAGCGUGGAGUGAUGUUCCGAGGAUCGGAGUGAUGUUCCGAAGCGCCCUUGGCAGCGCAGAAGCGCCA [Exclusion Theophylline B GF9]	115 nM
AGUGGACGUGUCCGGAGUGAUGUUCAGGAUACCAGACACGAAAGUGUCCCUUGGCAGCCGGAGUGAUGUUCCGGCGUUCACUAAA [Omei KL Theo A Exc B v4]	248 nM
GAUAUAGAGGCGGCCGCCACUAGUGAUGUUAGUGAUGUUAGAUAGAGAAUAGAACAGAGGUGGGAUAGGACCGGGCCAGAUAGAG [whbob_SS_Tryp_B_w34]	72.7 nM
GGGAGUAGUGCGGCCGCCACUGAGAAAGAAGAAGAUUGUAGUGAUGUUAUGGAGGAAAGGAAGAACAGGACCGGGCAUUAGAUUU [SSTRyptB.I]	735 nM
GGAUAGGACACAGGAUAUGGUAGUGAUGUUACCAAACUGGUUAAACAUGUCAGAAAACUGGCAUGACCAGAAGGGUGUCCUAUCG [FmnBX 27 C11+G75]	63.8 nM
AUUGUCGGAGUCUGUGCUGACUGACGAGCAAAGGAUAUGUUAUUAAACAGAAGGUUGUGCUGCUUAAGUGAUGUUUUUGGAGCUA [theeternabot_sameState_KL_FMN_A_26]	190 nM
CGAUUCAUGGCGGCCGCCACUCGCGAAGCUCCCGUUACGAUGUCCGCAACAGUGAUGUUGUUGCCGAGGACCGGGCCGAGAUCCA [theeternabot_exclusion_KL_Trp_B_31]	173 nM
GGUAGCUAGGUAGGAUAUAGCUAGUGGAGUGAUGUUCCACGAUACACGAGUGAUGUUCGUACCCUGCUAGAAGGGCCUAGCUACC	159 nM
GGUAGCAUGGCGGCCGCCACUCAUCGCCUCCCAUCGUCGGGAAGAAUAAGUGUAGUGAUGUUACAGAGGACCGGGCCAUGCUACC	386 nM
AGUCUCAAAAGAGGCAGCACUCACGAGGACAAGGAUAUCAUCUCAAUGAGAAGGUGUCCUCGUCCCUAGUGAUGUUAGGGAGUGC [Omei KL FMN A SS E v6]	265 nM
ACCUGUAGCAGAAGGAGCGACAGUUAUUCUGAUAGAACUCUGAGUGAUGUUCAGAACAACUGUCAGGUAGGUCGCUGAUACAGGU [Arg B Ex t8a]	370 nM
AUAUUUAUUUAGUCACUUUUCAUAUUAUGUCAGGAUAUCGUAUUUUCGAGAAGGGACUCAUGCUAGUGAUGUUAGCUAUUUCUCA [JR_Nu3_ExcFMNA_Sub022]	170 nM
UGGAUAUAGUGAUGUUAUAUAGAGAGUGAUACCAGUUUAGAGAAGAACCCUUGGCAGCAUAGAGAAGUAUCAUUAGAGAAGAAUG [ExTheophyl.Ap]	208 nM
GGUCCGGGCUCGGCCGCCACUCCCUCCUGCCGUAAGGUGGGAUACCGAGUGAUGUUCGGUUGGAGGAGGACCGGGAGCCCGGACC [#2 Exclusion - Tryptophan B Attempt #15 (HarryS)]	113 nM
